Measured values: the supplement of paper PMC10567573

B1: WDFY1 (parent)
chain: FWNIKQMWDTKTLGLRQHHCRKCG

Variants of: B1
Experiment: protein stability index of a GFP-peptide fusion (GPS, HEK-293T) (PSI 1-6); higher = more stable
Conditions: c terminus: a fixed tail appended
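Also: lentivirally expressed fusions sorted by FACS into six bins by GFP to DsRed ratio, PSI derived from sequencing read proportions per bin multiplied by bin number.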

Compared with FWNIKQMWDTKTLGLRQHECRKCG [H19E], FWNIKQMWDTKTLGLRQHNCRKCG [H19N] is higher in protein stability index: 2.09 for the first, 2.23 for the second.

First: FWNIKQMWDTKTLGLRQHACRKCG [H19A]
Second: FWNIKQMWDTKTLGLRQHYCRKCG [H19Y]
The protein stability index of the first is lower: 2.14 for the first, 2.5 for the second.

Going from FWNIKQMWDTKTLGLRQHSCRKCG [H19S] to FWNIKQMWDTKTLGLRQHDCRKCG [H19D], the protein stability index rises from 2.13 to 2.21.

Compared with FWNIKQMWDTKTLGLRQHICRKCG [H19I], FWNIKQMWDTKTLGLRQHHFRKCG [C20F] is higher in protein stability index: 2 for the first, 2.41 for the second.

Going from FWNIKQMWDTKTLGLRQHHERKCG [C20E] to FWNIKQMWDTKTLGLRQHHIRKCG [C20I], the protein stability index rises from 2.09 to 2.17.

First: FWNIKQMWDTKTLGLRQHHNRKCG [C20N]
Second: FWNIKQMWDTKTLGLRQHHMRKCG [C20M]
The protein stability index of the first is lower: 2.52 for the first, 2.57 for the second.

First: FWNIKQMWDTKTLGLRQHHRRKCG [C20R]
Second: FWNIKQMWDTKTLGLRQHHDRKCG [C20D]
The protein stability index of the first is lower: 2.4 for the first, 3.16 for the second.

Compared with FWNIKQMWDTKTLGLRQHHGRKCG [C20G], FWNIKQMWDTKTLGLRQHHVRKCG [C20V] is higher in protein stability index: 1.87 for the first, 2.2 for the second.

First: FWNIKQMWDTKTLGLRQHHHRKCG [C20H]
Second: FWNIKQMWDTKTLGLRQHHWRKCG [C20W]
The protein stability index of the first is higher: 2.69 for the first, 2.06 for the second.

Going from FWNIKQMWDTKTLGLRQHHSRKCG [C20S] to FWNIKQMWDTKTLGLRQHHLRKCG [C20L], the protein stability index falls from 2.44 to 2.23.

First: FWNIKQMWDTKTLGLRQHHTRKCG [C20T]
Second: FWNIKQMWDTKTLGLRQHHYRKCG [C20Y]
The protein stability index of the first is higher: 2.52 for the first, 2.23 for the second.

First: FWNIKQMWDTKTLGLRQHHQRKCG [C20Q]
Second: FWNIKQMWDTKTLGLRQHHPRKCG [C20P]
The protein stability index of the first is higher: 3.22 for the first, 1.73 for the second.

Going from FWNIKQMWDTKTLGLRQHHARKCG [C20A] to FWNIKQMWDTKTLGLRQHHCRKYG [C23Y], the protein stability index rises from 1.82 to 2.04.

Going from FWNIKQMWDTKTLGLRQHHCRKKG [C23K] to FWNIKQMWDTKTLGLRQHHCRKDG [C23D], the protein stability index rises from 2.71 to 2.82.

Going from FWNIKQMWDTKTLGLRQHHCRKAG [C23A] to FWNIKQMWDTKTLGLRQHHCRKWG [C23W], the protein stability index falls from 2.18 to 1.75.

Compared with FWNIKQMWDTKTLGLRQHHCRKMG [C23M], FWNIKQMWDTKTLGLRQHHCRKNG [C23N] is lower in protein stability index: 2.6 for the first, 2.57 for the second.

First: FWNIKQMWDTKTLGLRQHHCRKLG [C23L]
Second: FWNIKQMWDTKTLGLRQHHCRKEG [C23E]
The protein stability index of the first is higher: 2.81 for the first, 1.93 for the second.

Going from FWNIKQMWDTKTLGLRQHHCRKFG [C23F] to FWNIKQMWDTKTLGLRQHHCRKTG [C23T], the protein stability index rises from 1.59 to 2.34.

First: FWNIKQMWDTKTLGLRQHHCRKHG [C23H]
Second: FWNIKQMWDTKTLGLRQHHCRKIG [C23I]
The protein stability index of the first is higher: 2.78 for the first, 1.93 for the second.

First: FWNIKQMWDTKTLGLRQHHCRKQG [C23Q]
Second: FWNIKQMWDTKTLGLRQHHCRKRG [C23R]
The protein stability index of the first is higher: 2.3 for the first, 2.09 for the second.

Going from FWNIKQMWDTKTLGLRQHHCRKPG [C23P] to FWNIKQMWDTKTLGLRQSHCRKCG [H18S], the protein stability index rises from 2.19 to 2.58.

Going from FWNIKQMWDTKTLGLRQCHCRKCG [H18C] to FWNIKQMWDTKTLGLRQVHCRKCG [H18V], the protein stability index falls from 3 to 2.02.

Compared with FWNIKQMWDTKTLGLRQFHCRKCG [H18F], FWNIKQMWDTKTLGLRQPHCRKCG [H18P] is higher in protein stability index: 1.64 for the first, 2.63 for the second.

Going from FWNIKQMWDTKTLGLRQWHCRKCG [H18W] to FWNIKQMWDTKTLGLRQLHCRKCG [H18L], the protein stability index rises from 2.06 to 2.31.

First: FWNIKQMWDTKTLGLRQDHCRKCG [H18D]
Second: FWNIKQMWDTKTLGLRQEHCRKCG [H18E]
The protein stability index of the first is higher: 2.92 for the first, 2.21 for the second.

First: FWNIKQMWDTKTLGLRQMHCRKCG [H18M]
Second: FWNIKQMWDTKTLGLRQYHCRKCG [H18Y]
The protein stability index of the first is higher: 2.27 for the first, 2.08 for the second.

First: FWNIKQMWDTKTLGLRQNHCRKCG [H18N]
Second: FWNIKQMWDTKTLGLRQQHCRKCG [H18Q]
The protein stability index of the first is higher: 2.35 for the first, 1.82 for the second.

Compared with FWNIKQMWDTKTLGLRQKHCRKCG [H18K], FWNIKQMWDTKTLGLRQIHCRKCG [H18I] is higher in protein stability index: 1.89 for the first, 2.01 for the second.

Going from FWNIKQMWDTKTLGLRQAHCRKCG [H18A] to FWNIKQMWDTKTLGLRQTHCRKCG [H18T], the protein stability index rises from 1.84 to 3.16.

Compared with FWNIKQMWDTKTLGLRQRHCRKCG [H18R], FWNIKQMWDTKTLGLRQGHCRKCG [H18G] is higher in protein stability index: 2.21 for the first, 2.39 for the second.

Compared with FWNIKQMWDTKTLGLRWHHCRKCG [Q17W], FWNIKQMWDTKTLGLRPHHCRKCG [Q17P] is higher in protein stability index: 2.02 for the first, 2.13 for the second.

First: FWNIKQMWDTKTLGLRMHHCRKCG [Q17M]
Second: FWNIKQMWDTKTLGLRYHHCRKCG [Q17Y]
The protein stability index of the first is lower: 1.7 for the first, 1.98 for the second.

Going from FWNIKQMWDTKTLGLREHHCRKCG [Q17E] to FWNIKQMWDTKTLGLRLHHCRKCG [Q17L], the protein stability index falls from 2.56 to 2.53.

Compared with FWNIKQMWDTKTLGLRKHHCRKCG [Q17K], FWNIKQMWDTKTLGLRRHHCRKCG [Q17R] is higher in protein stability index: 1.99 for the first, 2.75 for the second.

Going from FWNIKQMWDTKTLGLRIHHCRKCG [Q17I] to FWNIKQMWDTKTLGLRVHHCRKCG [Q17V], the protein stability index falls from 1.81 to 1.68.

Going from FWNIKQMWDTKTLGLRSHHCRKCG [Q17S] to FWNIKQMWDTKTLGLRHHHCRKCG [Q17H], the protein stability index falls from 2.05 to 1.83.

Going from FWNIKQMWDTKTLGLRGHHCRKCG [Q17G] to FWNIKQMWDTKTLGLRNHHCRKCG [Q17N], the protein stability index falls from 2.98 to 2.14.

Going from FWNIKQMWDTKTLGLRTHHCRKCG [Q17T] to FWNIKQMWDTKTLGLRFHHCRKCG [Q17F], the protein stability index falls from 2.12 to 1.88.

Compared with FWNIKQMWDTKTLGLRQHHCMKCG [R21M], FWNIKQMWDTKTLGLRQHHCHKCG [R21H] is lower in protein stability index: 1.71 for the first, 1.57 for the second.

First: FWNIKQMWDTKTLGLRQHHCGKCG [R21G]
Second: FWNIKQMWDTKTLGLRQHHCIKCG [R21I]
The protein stability index of the first is higher: 1.84 for the first, 1.72 for the second.

Going from FWNIKQMWDTKTLGLRQHHCYKCG [R21Y] to FWNIKQMWDTKTLGLRQHHCLKCG [R21L], the protein stability index falls from 2.14 to 1.67.

Going from FWNIKQMWDTKTLGLRQHHCCKCG [R21C] to FWNIKQMWDTKTLGLRQHHCFKCG [R21F], the protein stability index falls from 2.12 to 1.85.

Going from FWNIKQMWDTKTLGLRQHHCSKCG [R21S] to FWNIKQMWDTKTLGLRQHHCTKCG [R21T], the protein stability index rises from 2.16 to 2.62.

First: FWNIKQMWDTKTLGLRQHHCAKCG [R21A]
Second: FWNIKQMWDTKTLGLRQHHCDKCG [R21D]
The protein stability index of the first is lower: 2.03 for the first, 2.8 for the second.

First: FWNIKQMWDTKTLGLRQHHCNKCG [R21N]
Second: FWNIKQMWDTKTLGLRQHHCWKCG [R21W]
The protein stability index of the first is lower: 1.83 for the first, 2.46 for the second.

Compared with FWNIKQMWDTKTLGLRQHHCQKCG [R21Q], FWNIKQMWDTKTLGLRQHHCEKCG [R21E] is lower in protein stability index: 2.28 for the first, 2.07 for the second.

Compared with FWNIKQMWDTKTLGLRQHHCPKCG [R21P], FWNIKQMWDTKTLGLRQHHCKKCG [R21K] is higher in protein stability index: 2.07 for the first, 2.78 for the second.
